{"source": "paper PMC5149402", "target": "rat GluD2 ATD tetramerised with an engineered tetrameric coiled-coil zipper based on GCN4 (rat | not stated)"}
{"substance": "rat GluD2 ATD tetramerised with an engineered tetrameric coiled-coil zipper based on GCN4 (domain or fragment)", "values": [{"measurement": "stoichiometry N", "result": 4}]}
